Laboratory results from EP4740958A1 (QILU PHARMACEUTICAL CO., LTD., dated 2026).

Target: T1, recombinant human CCR8 protein (human, UniProt P51685 1-355, limits assumed)
T1 construct: Recombinant protein fixed on a CM5 chip by amino coupling (about 15 RU); also called human CCR8 recombinant protein
Test: SPR (Biacore 8K), CCR8 fixed on CM5 chip by amino coupling, antibody 1 nM-31.25 pM as analyte, 1:1 model

T1 sequence (P51685 whole entry): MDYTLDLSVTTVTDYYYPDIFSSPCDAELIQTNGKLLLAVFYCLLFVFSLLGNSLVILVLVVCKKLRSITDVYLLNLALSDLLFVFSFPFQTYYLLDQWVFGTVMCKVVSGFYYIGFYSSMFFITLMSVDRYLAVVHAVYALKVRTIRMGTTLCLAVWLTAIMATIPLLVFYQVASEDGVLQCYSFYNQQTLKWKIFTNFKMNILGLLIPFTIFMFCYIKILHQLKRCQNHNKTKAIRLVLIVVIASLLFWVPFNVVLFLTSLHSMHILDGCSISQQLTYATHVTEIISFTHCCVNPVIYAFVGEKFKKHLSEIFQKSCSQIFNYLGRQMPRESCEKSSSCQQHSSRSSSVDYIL

B1: anti-human CCR8 monoclonal antibody J06 (antibody, human IgG1, kappa, V domains shown)
VH: EVQLVESGGGVVQPGRSLRLSCAASGFPFEPFAMNWVRQAPGKGLEWVARIRSKANNYATYYADSVKDRFAISRDNSKRTLYLLMHSLRFEDTAVYYCVRGRENNYGYAMDYWGQGTTVTVSS
VL: DVVMTQSPPSLPVTLGQSASISCRSSQSLLHSNGITYLYWFLQRPGQSPRLLIYRMSNLASGVPDRFSGSGSGTDFTLRISRVEAEDVGVYYCMQHLTYPFTFGIGTKVEIKR
notes: also called J06 preparation; anti-CCR8 Mab 1187
**Q.** What does the source list for B1?
**A.** Kd: 7.77 pM; koff: 0.000131 s⁻¹; kon: 1.69e+07 M⁻¹ s⁻¹
